According to paper PMC7854685, “Histone Parylation factor 1 contributes to the inhibition of PARP1 by cancer drugs” (Nature Communications, 2021):
Several values for one entry are separate records, joined by “and”; a condition that tells them apart may be missing. Identical values can stand only once. Entries after “also recorded” stand apart in the source; their conditions may differ. Like-named read-outs stand apart in the source and are kept apart here.

Tests used:
[1] = target: PARP1 - Nuc165 / PARP1 - p18mer complex (Homo sapiens, UniProt P09874); assay: FRET assay of Alexa647-HPF1 binding to Alexa488-PARP1 with p18mer DNA or Nuc165, with or without olaparib; settings: for Kd: read-out: KD of HPF1
Description: Excess unincorporated dye from PARP1 was removed by gel filtration chromatography (S-200). The extent of labeling, defined as the ratio of the molar concentration of dye vs. protein, was determined by UV-Vis spectroscopy and was typically 50–100%. […] All concentrations reflect final concentrations in the plate and all samples were diluted in binding buffer. […] Raw fluorescence intensity values were used to correct the FRET signal for the donor bleed-through and for the acceptor direct excitation, as previously described[43].

[2] = target: T1, PARP2 (Homo sapiens, UniProt Q9UGN5); assay: Rate of autoPARylation k2[NAD+] (DNA release without PARPi) in presence or absence of HPF1; type: biochemical
T1 construct: Wild-type PARP1 and PARP2 were expressed and purified as previously described; made in house
Description: (§1) Next, 10 µL of PARP1 or PARP2 (10 nM) premixed with fluorescein labeled p18mer DNA (5 nM), was added to the various dilutions of PARPi and then incubated for 30 min to ensure complete association. Dissociation of labeled DNA was initiated by addition of 10 µL of NAD^+ (2 mM). All concentrations cited are final concentrations in a volume of 30 µL. […] Kinetic data for a range of different PARPi (20–500 nM) were exported to Prism (GraphPad) and were globally fitted to individual exponentials1 y=y0−y∞*e^−kobsx+y0 with the constraints that y0 (the value of the FP signal at t = 0) and y∞ (the value of the FP signal at t = ∞) are shared for all concentrations of PARPi. […] We emphasize that the same correction is applied to the data for all PARPi.

[3] = target: T2, PARP1 (Homo sapiens, UniProt P09874); assay: as above; type: biochemical
T2 construct: Wild-type PARP1 and PARP2 were expressed and purified as previously described; made in house
T2 sequence (P09874 whole entry): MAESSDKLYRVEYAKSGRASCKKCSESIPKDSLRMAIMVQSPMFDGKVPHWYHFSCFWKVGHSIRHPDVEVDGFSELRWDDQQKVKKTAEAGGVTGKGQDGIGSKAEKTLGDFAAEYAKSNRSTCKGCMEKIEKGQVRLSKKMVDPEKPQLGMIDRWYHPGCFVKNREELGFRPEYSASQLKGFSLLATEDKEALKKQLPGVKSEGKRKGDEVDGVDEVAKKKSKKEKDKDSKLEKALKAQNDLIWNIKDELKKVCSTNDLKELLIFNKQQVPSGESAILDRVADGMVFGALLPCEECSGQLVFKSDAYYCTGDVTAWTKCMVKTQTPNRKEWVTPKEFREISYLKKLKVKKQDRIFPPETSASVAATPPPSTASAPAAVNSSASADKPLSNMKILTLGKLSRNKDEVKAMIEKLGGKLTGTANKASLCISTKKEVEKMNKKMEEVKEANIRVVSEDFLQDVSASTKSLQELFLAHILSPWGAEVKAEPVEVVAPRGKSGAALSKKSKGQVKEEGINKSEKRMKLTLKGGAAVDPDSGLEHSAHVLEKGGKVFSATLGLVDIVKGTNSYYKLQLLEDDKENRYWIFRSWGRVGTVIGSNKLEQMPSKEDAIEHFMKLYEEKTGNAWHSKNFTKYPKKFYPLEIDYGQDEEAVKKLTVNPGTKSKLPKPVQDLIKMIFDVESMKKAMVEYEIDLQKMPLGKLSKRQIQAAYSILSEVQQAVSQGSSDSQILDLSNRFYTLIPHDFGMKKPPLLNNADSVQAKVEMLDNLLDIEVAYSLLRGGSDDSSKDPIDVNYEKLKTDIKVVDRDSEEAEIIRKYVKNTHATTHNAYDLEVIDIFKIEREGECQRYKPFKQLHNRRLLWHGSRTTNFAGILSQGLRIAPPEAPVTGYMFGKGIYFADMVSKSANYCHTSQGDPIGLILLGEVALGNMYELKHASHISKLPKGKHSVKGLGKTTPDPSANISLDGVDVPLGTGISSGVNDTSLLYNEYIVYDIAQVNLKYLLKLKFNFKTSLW
Description: as §1

Sequence of PARP1 - Nuc165 / PARP1 - p18mer complex (P09874 whole entry): as above
Sequence of PARP1 - Nuc165 / PARP1 - p18mer complex (Q9NWY4 whole entry partner): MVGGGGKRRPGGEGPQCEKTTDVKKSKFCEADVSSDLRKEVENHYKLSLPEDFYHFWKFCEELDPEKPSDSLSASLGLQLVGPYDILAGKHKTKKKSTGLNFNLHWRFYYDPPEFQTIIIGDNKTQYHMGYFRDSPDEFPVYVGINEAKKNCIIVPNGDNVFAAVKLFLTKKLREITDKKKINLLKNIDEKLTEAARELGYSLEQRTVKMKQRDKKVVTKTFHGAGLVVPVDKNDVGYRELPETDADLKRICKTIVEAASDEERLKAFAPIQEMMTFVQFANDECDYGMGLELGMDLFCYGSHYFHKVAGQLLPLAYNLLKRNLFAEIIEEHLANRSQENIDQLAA
T1 sequence (Q9UGN5 whole entry): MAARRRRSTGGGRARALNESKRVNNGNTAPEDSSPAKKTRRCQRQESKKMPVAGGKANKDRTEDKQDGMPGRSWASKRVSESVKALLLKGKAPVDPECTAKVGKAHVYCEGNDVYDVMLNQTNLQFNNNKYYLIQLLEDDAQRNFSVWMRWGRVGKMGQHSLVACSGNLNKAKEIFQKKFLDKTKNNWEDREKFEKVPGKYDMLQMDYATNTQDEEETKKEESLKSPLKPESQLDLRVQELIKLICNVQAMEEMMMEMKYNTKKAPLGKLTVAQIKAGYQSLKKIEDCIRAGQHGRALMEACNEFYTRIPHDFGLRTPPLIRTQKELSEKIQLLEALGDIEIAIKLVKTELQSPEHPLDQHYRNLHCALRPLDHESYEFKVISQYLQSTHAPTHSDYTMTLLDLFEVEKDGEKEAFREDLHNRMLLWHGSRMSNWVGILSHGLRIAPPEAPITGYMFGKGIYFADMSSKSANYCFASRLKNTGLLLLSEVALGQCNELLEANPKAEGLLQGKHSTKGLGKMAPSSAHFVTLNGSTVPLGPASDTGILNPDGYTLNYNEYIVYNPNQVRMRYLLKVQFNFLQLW

| Molecule | factor tighter binding to PARP1—Nuc165 than to PARP1—p18mer ([1]; no olaparib) | Kd ([1]; PARP1 – p18mer complex, in the presence of olaparib (1 µM)) [nM] | Kd ([1]; PARP1—Nuc165 complex, in the presence of olaparib (1 µM)) [nM] | Kd ([1]; PARP1—Nuc165 complex, no olaparib) [nM] | kobs ([2]; PARP2 + HPF1, replicate fits of the fluorescence polarization time traces (time in s) of sheet SuppFig4CD) | kobs(+HPF1) ([2]; PARP2, no PARPi, 2 mM NAD+) [s⁻¹] | kobs (individual replicates) ([3]; PARP1 +HPF1, no PARPi) | kobs(+HPF1) ([3]; PARP1, no PARPi, 2 mM NAD+) [s⁻¹] | binding to PARP1 – Nuc165 complex ([1]; FRET) |
| --- | --- | --- | --- | --- | --- | --- | --- | --- | --- |
| HPF1: Histone PARylation factor, protein that binds PARP1 and PARP2 and provides the catalytic base Glu284 (protein, Alexa647 C2 maleimide label (extent of labeling typically 50-100%); left off: His tag (inferred from the nickel affinity column), end not stated, state not stated) LRKEVENHYKLSLPEDFYHFWKFCEELDPEKPSDSLSASLGLQLVGPYDILAGKHKTKKKSTGLNFNLHWRFYYDPPEFQTIIIGDNKTQYHMGYFRDSPDEFPVYVGINEAKKNCIIVPNGDNVFAAVKLFLTKKLREITDKKKINLLKNIDEKLTEAARELGYSLEQRTVKMKQRDKKVVTKTFHGAGLVVPVDKNDVGYRELPETDADLKRICKTIVEAASDEERLKAFAPIQEMMTFVQFANDECDYGMGLELGMDLFCYGSHYFHKVAGQLLPLAYNLLKRNLFAEIIEEHLANRSQENIDQLAA | 5 | 1200 ± 500 | 229 ± 55 | 790 ± 147 | 0.09827 and 0.07689 and 0.09446 | 0.090 ± 0.011 | 0.019 and 0.025 and 0.031 | 0.025 ± 0.006 |  |
| F280A mutant of HPF1: F280A mutant of HPF1 (protein) LRKEVENHYKLSLPEDFYHFWKFCEELDPEKPSDSLSASLGLQLVGPYDILAGKHKTKKKSTGLNFNLHWRFYYDPPEFQTIIIGDNKTQYHMGYFRDSPDEFPVYVGINEAKKNCIIVPNGDNVFAAVKLFLTKKLREITDKKKINLLKNIDEKLTEAARELGYSLEQRTVKMKQRDKKVVTKTFHGAGLVVPVDKNDVGYRELPETDADLKRICKTIVEAASDEERLKAFAPIQEMMTFVQAANDECDYGMGLELGMDLFCYGSHYFHKVAGQLLPLAYNLLKRNLFAEIIEEHLANRSQENIDQLAA |  |  |  |  |  |  |  |  | does not bind; also recorded: failed to bind |
